Sequences and labels used below:
B1: GST–syntaxin-5 (domain or fragment)
chain: MIPRKRYGSKNTDQGVYLGLSKTQVLSPATAINSSSDIAPLPTPVALVPSPPDTMSCRDRTQEFLSACKSLQSRQNGIQTNKPALHATRQCSEFTLMARRIGKDLSNTFAKLEKLTILAKRKSLFDDKAVEIEELTYIIKQDINSLNKQIAQLQDFVRAKGSQSGRHLQTHSNTIVVSLQSKLASMSNDFKSVLEVRTENLKQQRNRREQFSRAPVSALPLAPNNLGGGPIVLGGESRASRDVAIDMMDPRTSQQLQLIDEQDSYIQSRADTMQNIESTIVELGSIFQQLAHMVKEQEETIQRIDENVLGAQLDVEAAHSEILKYFQSVTSNR
B2: CC2 (aa 728–765 of rat p115) (peptide)
peptide: Biotin-QPEEISRLREEIEELRSHQVLLQSQLAEKDTVIENLRS
B3: His–GOS-28 (domain or fragment)
chain: AAGTSNYWEDLRKQARQLENELDLKLVSFSKLCTSYSHSSARDGGRDRYSSDTTPLLNGSSQDRMFETMAIEIEQLLARLTGVNDKMAEYTHSAGVPSLNAALMHTLQRHRDILQDYTHEFHKTKANFMAIRERENLMGSVRKDIESYKSGSGVNNRRTELFLKEHDHLRNSDRLIEETISIAMATKENMTSQRGMLKSIHSKMNTLANRFPAVNSLIQRINLRKRRD
B4: CC4 (aa 843–930 of rat p115) (peptide)
peptide: TTDVEGRLSALLQETKELKNEIKALSEERTAIQKQLDSSNSTIAILQTEKDKLYLEVTDSKKEQDDLLVLLADQDQKILSLKSKLKDL
modifications: NH2-terminally biotinylated
B5: Ykt6p (endogenous) (natural protein)
chain: MKLYSLSVFYKGEPKAVLLKAAYDVSSFSFFQRSSVQEFMTFTSQLIVERSAKGSRASVKEQEYLCHVYVRSDSLAGVVIADSEYPSRVAFTLLEKVLDEFSKQVDRIDWPVGSPATIHYTALDGHLSRYQNPREADPMSKVQAELDETKIILHNTMESLLERGEKLDDLVSKSEVLGTQSKAFYKTARKQNSCCAIM
B6: CC1 (aa 637–699 of rat p115) (peptide)
peptide: Biotin-KEEEVKKTLEQHDNIVTHYKNMIREQDLQLEELKQQVSTLKCQNEQLQTAVTQQASQIQQHKD
B7: CC3 (aa 783–827 of rat p115) (peptide)
peptide: Biotin-DAEQVAELKQELSALKSQLCSQSLEITRLQTENSELQQRAETLAK
B8: GOS-28 (endogenous) (natural protein)
chain: MAAGTSNYWEDLRKQARQLENELDLKLVSFSKLCTSYSHSSARDGGRDRYSSDTTPLLNGSSQDRMFETMAIEIEQLLARLTGVNDKMAEYTHSAGVPSLNAALMHTLQRHRDILQDYTHEFHKTKANFMAIRERENLMGSVRKDIESYKSGSGVNNRRTELFLKEHDHLRNSDRLIEETISIAMATKENMTSQRGMLKSIHSKMNTLANRFPAVNSLIQRINLRKRRDSLILGGVIGICTILLLLYAFH
B9: syntaxin-5 (endogenous) (natural protein)
chain: MIPRKRYGSKNTDQGVYLGLSKTQVLSPATAINSSSDIAPLPTPVALVPSPPDTMSCRDRTQEFLSACKSLQSRQNGIQTNKPALHATRQCSEFTLMARRIGKDLSNTFAKLEKLTILAKRKSLFDDKAVEIEELTYIIKQDINSLNKQIAQLQDFVRAKGSQSGRHLQTHSNTIVVSLQSKLASMSNDFKSVLEVRTENLKQQRNRREQFSRAPVSALPLAPNNLGGGPIVLGGESRASRDVAIDMMDPRTSQQLQLIDEQDSYIQSRADTMQNIESTIVELGSIFQQLAHMVKEQEETIQRIDENVLGAQLDVEAAHSEILKYFQSVTSNRWLMVKIFLILIVFFIIFVVFLA

No end group written: not given here. *: point of attachment. Biotin = O=C1N[C@H]2[C@H](CS[C@H]2CCCCC(=O)*)N1

One series deals with T1, p115 (rat, UniProt P41542 1-959).
T1 sequence: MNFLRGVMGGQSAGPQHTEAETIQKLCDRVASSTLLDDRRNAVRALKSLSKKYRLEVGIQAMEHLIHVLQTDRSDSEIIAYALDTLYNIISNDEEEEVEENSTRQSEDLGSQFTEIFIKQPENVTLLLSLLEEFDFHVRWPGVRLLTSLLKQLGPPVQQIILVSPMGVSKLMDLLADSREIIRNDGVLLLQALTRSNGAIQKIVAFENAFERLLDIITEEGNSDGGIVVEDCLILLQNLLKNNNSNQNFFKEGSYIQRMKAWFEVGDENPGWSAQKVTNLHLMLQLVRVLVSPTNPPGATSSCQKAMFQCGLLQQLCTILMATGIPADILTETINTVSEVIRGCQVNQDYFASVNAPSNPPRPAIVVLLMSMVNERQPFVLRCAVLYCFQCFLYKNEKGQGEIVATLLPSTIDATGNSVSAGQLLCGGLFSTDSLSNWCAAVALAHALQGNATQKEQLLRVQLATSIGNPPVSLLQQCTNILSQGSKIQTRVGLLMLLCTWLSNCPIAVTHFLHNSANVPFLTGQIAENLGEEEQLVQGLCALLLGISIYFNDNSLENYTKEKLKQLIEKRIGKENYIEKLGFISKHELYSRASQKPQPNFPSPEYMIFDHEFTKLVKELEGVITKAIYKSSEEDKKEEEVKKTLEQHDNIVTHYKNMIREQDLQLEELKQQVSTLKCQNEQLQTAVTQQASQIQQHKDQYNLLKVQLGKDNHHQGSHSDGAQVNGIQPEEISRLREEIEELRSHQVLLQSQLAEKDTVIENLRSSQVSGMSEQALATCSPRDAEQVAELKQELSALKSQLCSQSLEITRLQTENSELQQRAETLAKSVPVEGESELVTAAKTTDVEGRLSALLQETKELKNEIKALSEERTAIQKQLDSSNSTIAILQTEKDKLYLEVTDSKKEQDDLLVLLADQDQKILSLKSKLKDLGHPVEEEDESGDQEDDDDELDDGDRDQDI
Kind of series: pull-down.

Series [1] concerns the molecule itself. Nature of the series: SEC + other: laser light scattering + native gel or EMSA.
The series “GST–syntaxin-5” concerns the target B1. Nature of the series: pull-down.
For another series, the target named is T2, GS15 (endogenous) (rat (endogenous in rat liver Golgi …, UniProt O35152 1-111)).
T2 sequence: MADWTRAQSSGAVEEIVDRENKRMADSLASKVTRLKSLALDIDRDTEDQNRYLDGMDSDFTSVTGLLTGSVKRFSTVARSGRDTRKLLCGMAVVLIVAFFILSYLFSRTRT
Kind of series: co-IP.

B1 registered a Kd with p115 of 1800 nM.

As to B2, in series [1], the percent dimeric is around 20% and the percent tetrameric was around 10%.

In the case of B3, binding with p115 was characterised by a dissociation constant (Kd) of 1500 nM. The “fold stimulation of the interaction by p115 against no p115” value in the series with GST–syntaxin-5 was determined as 4 fold.

As for B4, in series [1], the percent dimeric is around 20% and the percent tetrameric is around 10%.

For B5, the “fold enhancement of complex formation by p115 against no p115” value (“fold enhancement … against no p115” for short) in the series with GS15 (endogenous) was around 5 fold.

B6: in series [1], the percent dimeric is around 20% and the percent tetrameric is around 10%.

With B7, in series [1], the percent dimeric is around 20% and the percent tetrameric is around 10%.

B8: the “fold enhancement … against no p115” value with GS15 (endogenous) is around 5 fold.

With B9, the “fold enhancement … against no p115” value with GS15 (endogenous) is around 5 fold.

(Values after PMC2173270 (The Journal of Cell Biology, 2002).)
